B1: PDL1-16E12 (LS/4A6) (antibody, V domains shown)
VH: QMQLVQSGAEVKKPGSSVKVSCKASGGTFSSYAISWVRQAPGQGLEWMGRIIPILGIANYAQKFQGRVTITADKSTSTAYMELSSLRSEDTAVYYCAKPRDGYNLVAFDIWGQGTMVTVSS
VL: QLVLTQPTSVSGAPGQRVIISCTGSSSNIGAGYDVHWYQQLPGTAPKLLIYGNTNRPSGVPDRFSGSKSGTAASLAITGLQAEDEADYYCQSFDRSRSGSNVFGTGTKVTVL
B2: PDL1-16E12 (LS/4B8) (antibody, V domains shown)
VH: QMQLVQSGAEVKKPGSSVKVSCKASGGTFSSYAISWVRQAPGQGLEWMGRIIPILGIANYAQKFQGRVTITADKSTSTAYMELSSLRSEDTAVYYCAKPRDGYNLVAFDIWGQGTMVTVSS
VL: QLVLTQPPSVSGAPGQSVTISCTGSNSDIGAGHDVHWYQQLPGAAPKLLIHGDRDRPSGVPDRFSGSKSGTSASLAITGLQPEDEADYYCQSYNNSLRGSVFGTGTKVTVL
B3: PDL1-16E12 (LS/4H11) (antibody, V domains shown)
VH: QMQLVQSGAEVKKPGSSVKVSCKASGGTFSSYAISWVRQAPGQGLEWMGRIIPILGIANYAQKFQGRVTITADKSTSTAYMELSSLRSEDTAVYYCAKPRDGYNLVAFDIWGQGTMVTVSS
VL: QLVLTQPPSVSGAPGQRVTISCTGSSSNVGAGYDVHWYQQLPGTAPKLLIYGNNNRPSGVPARFSGSKSGTSASLAITGLQAEDEADYYCQSYDSRLGVVFGGGTKLTVL
B4: PDL1-16E12 (LS/4E12) (antibody, V domains shown)
VH: QMQLVQSGAEVKKPGSSVKVSCKASGGTFSSYAISWVRQAPGQGLEWMGRIIPILGIANYAQKFQGRVTITADKSTSTAYMELSSLRSEDTAVYYCAKPRDGYNLVAFDIWGQGTMVTVSS
VL: QLVLTQPPSVSAAPGQKVTFSCTGSSSNIGAGYDVHWYQHLPGAAPRLLIYANTNRPLGVPDRFSGSKSGTSASLAITGLQAEDEADYYCQSYDNRLSGSLFGGGTKLTVL
B5: PDL1-16E12 (LS/4A10) (antibody, V domains shown)
VH: QMQLVQSGAEVKKPGSSVKVSCKASGGTFSSYAISWVRQAPGQGLEWMGRIIPILGIANYAQKFQGRVTITADKSTSTAYMELSSLRSEDTAVYYCAKPRDGYNLVAFDIWGQGTMVTVSS
VL: QLVLTQPPSVSGAPGQRVTISCTGSNSNIGAGYDVHWYQQLPGTAPKLLIHGNNIRPSGVPDRFSGSRSGTSASLAITGLQADDEANYFCQSYDNSLRGSVFGTGTKVTVL
B6: PDL1-16E12 (LS/4B11) (antibody, V domains shown)
VH: QMQLVQSGAEVKKPGSSVKVSCKASGGTFSSYAISWVRQAPGQGLEWMGRIIPILGIANYAQKFQGRVTITADKSTSTAYMELSSLRSEDTAVYYCAKPRDGYNLVAFDIWGQGTMVTVSS
VL: QLVLTQPPSVSGAPGQRVTISCTGTNSNIGAGHDVQWYQQIPGTAPKLLIYGNNNRPSGVPDRFSGSKSGTLASLAITGLQSEDEADYYCHSYDGSLSEGVFGTGTKVTVL
B7: PDL1-16E12 (LS/4B12) (antibody, V domains shown)
VH: QMQLVQSGAEVKKPGSSVKVSCKASGGTFSSYAISWVRQAPGQGLEWMGRIIPILGIANYAQKFQGRVTITADKSTSTAYMELSSLRSEDTAVYYCAKPRDGYNLVAFDIWGQGTMVTVSS
VL: QLVLTQPPSVSGAPGQRVTISCTGSSSNIGAGYDVHWYQQLPGTAPKLIIYGDTKRASGVPDRFSGSKSGTSASLAITGLQAEDGADYYCQSYDNSLSAHAVFGTGTKVTVL
B8: PDL1-16E12 (LS/4H6) (antibody, V domains shown)
VH: QMQLVQSGAEVKKPGSSVKVSCKASGGTFSSYAISWVRQAPGQGLEWMGRIIPILGIANYAQKFQGRVTITADKSTSTAYMELSSLRSEDTAVYYCAKPRDGYNLVAFDIWGQGTMVTVSS
VL: QLVLTQPPSVSAAPGQTVTISCTGSSSNIGAGYDVHWYQQFPGTAPKLLIYGNNNRPSGVPDRFSGSKSGTSASLAITGLQTDDEADYFCQSYDSSLRVSSVFGTGTKVTVL
B9: PDL1-16E12 (LS/4H9) (antibody, V domains shown)
VH: QMQLVQSGAEVKKPGSSVKVSCKASGGTFSSYAISWVRQAPGQGLEWMGRIIPILGIANYAQKFQGRVTITADKSTSTAYMELSSLRSEDTAVYYCAKPRDGYNLVAFDIWGQGTMVTVSS
VL: QFVLTQPPSVSGAPGQRVTISCTGSRSNFGAGHDVHWYQQLPGTAPKLLIYGNNNRPSGVPDRFSGSKSGTSASLAIAGLQSDDEADYYCQSYDSSLSGSVFGTGTKVTVL
B10: PDL1-16E12 (LS/4D4) (antibody, V domains shown)
VH: QMQLVQSGAEVKKPGSSVKVSCKASGGTFSSYAISWVRQAPGQGLEWMGRIIPILGIANYAQKFQGRVTITADKSTSTAYMELSSLRSEDTAVYYCAKPRDGYNLVAFDIWGQGTMVTVSS
VL: QLVLTQPSSVSGAPGQRVTISCTGSSSNLGAPYDVHWYQQLPGTAPKLLIYGNSNRPSGVPDRFSVSKSGTSASLAITGLQAEDEADYYCQSYDSSLSSSVFGGGTKLTVL
B11: PDL1-16E12 (LS/4F11) (antibody, V domains shown)
VH: QMQLVQSGAEVKKPGSSVKVSCKASGGTFSSYAISWVRQAPGQGLEWMGRIIPILGIANYAQKFQGRVTITADKSTSTAYMELSSLRSEDTAVYYCAKPRDGYNLVAFDIWGQGTMVTVSS
VL: QFVLTQPPSVSGAPGQRVTISCTGSSSNIGAGSDVHWYQQLPGTAPKLLIYGNNNRPSGVPDRFSGSKSGTSASLAITGLQAEDEADYYCQSYDSSLNGVVFGGGTKLTVL
B12: PDL1-16E12 (LS/4E5) (antibody, V domains shown)
VH: QMQLVQSGAEVKKPGSSVKVSCKASGGTFSSYAISWVRQAPGQGLEWMGRIIPILGIANYAQKFQGRVTITADKSTSTAYMELSSLRSEDTAVYYCAKPRDGYNLVAFDIWGQGTMVTVSS
VL: QLVLTQPPSVSGAPGQGVTISCTGDSSNIGAGYDVHWYQQFPGTAPKLLIYENSNRPSGVPDRFSGSKSGTSASLAITGLQAEDEADYYCQSYDSRLGAVFGGGTKLTVL
B13: PDL1-16E12 (LS/4G1) (antibody, V domains shown)
VH: QMQLVQSGAEVKKPGSSVKVSCKASGGTFSSYAISWVRQAPGQGLEWMGRIIPILGIANYAQKFQGRVTITADKSTSTAYMELSSLRSEDTAVYYCAKPRDGYNLVAFDIWGQGTMVTVSS
VL: QLVLTQPPSVSGAPGQRVTISCTGGSSNIGAGYDVHWYQQLPGTAPKLLLFGNTNRPSGVPGRFSGSKSGSSASLAITGLQSDDEADYYCQSYDSSLSGSVFGTGTKVTVL
B14: PDL1-16E12 (LS/4A8) (antibody, V domains shown)
VH: QMQLVQSGAEVKKPGSSVKVSCKASGGTFSSYAISWVRQAPGQGLEWMGRIIPILGIANYAQKFQGRVTITADKSTSTAYMELSSLRSEDTAVYYCAKPRDGYNLVAFDIWGQGTMVTVSS
VL: QLVLTQPPSVSGAPGQRVTISCTGSSSNIGAGYDVHWYQHRPGKAPQLLIYGDNNRPSGIPDRFSGSKSGTSASLAITGLQPEDEADYYCQSFDSRLGVVFGGGTKLTVL

The experiment deals with PD-L1 on CHO cell line highly expressing PD-L1 (PD-1/PD-L1 blockade bioassay kit, promega J1250) (UniProt Q9NZQ7 19-290, limits assumed). In words: cell-based or functional assay.
PD-L1 on CHO cell line highly expressing PD-L1 (PD-1/PD-L1 blockade bioassay kit, promega J1250), sequence (Q9NZQ7 19-290 limits assumed): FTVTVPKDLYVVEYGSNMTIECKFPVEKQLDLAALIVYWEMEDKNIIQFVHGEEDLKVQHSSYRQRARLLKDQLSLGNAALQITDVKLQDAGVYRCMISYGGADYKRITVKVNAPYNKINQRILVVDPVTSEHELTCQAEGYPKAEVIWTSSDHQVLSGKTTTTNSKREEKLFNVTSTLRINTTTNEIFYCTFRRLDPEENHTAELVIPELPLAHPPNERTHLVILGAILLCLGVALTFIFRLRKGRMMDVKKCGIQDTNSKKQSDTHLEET
Consider B1, for which the “Average *EC50 [nM], PD-1/PD-L1 blockade bioassay” value (from here on “Average *EC50 [nM]”) was 0.48 nM.

As to B2, the “Average *EC50 [nM]” value was 188 nM.

Turning to B3, the “Average *EC50 [nM]” value is 1.02 nM.

Turning to B4, the “Average *EC50 [nM]” value turned out to be 0.49 nM.

Consider B5, for which the “Average *EC50 [nM]” value is 0.45 nM.

For B6, the “Average *EC50 [nM]” value amounted to 0.63 nM.

For the molecule B7, the “Average *EC50 [nM]” value is 0.46 nM.

In the case of B8, the “Average *EC50 [nM]” value stood at 0.51 nM.

Regarding B9, the “Average *EC50 [nM]” value worked out at 0.63 nM.

On to B10, for which the “Average *EC50 [nM]” value was 0.57 nM.

On to B11, for which the “Average *EC50 [nM]” value came out at 1.68 nM.

On to B12, for which the “Average *EC50 [nM]” value is 0.45 nM.

Take B13: the “Average *EC50 [nM]” value was 0.47 nM.

B14: the “Average *EC50 [nM]” value worked out at 0.83 nM.

(Values after patent publication US20190322750A1 (Y BIOLOGICS, published 2019).)
